Results taken from the RNAGym collection of RNA variant scans (doi:10.1073/pnas.2313332121).

B1: TPR t1 (parent)
chain: GACCAAUCUGCCCUCAGAGCUCGAGAACAUCUUCGGAUGCAGAGGAGGCAGGCUUCGGUGGCGCGAUAGCGCCAACGUCCUCAACCUCCAAUGCAUCCCACCACAUGAUGAUGCCUGAAGAGCCUUGGUUUUUUG

Variants of: B1
Assay: polymerase ribozyme fitness, log enrichment relative to wild type (log ratio); higher = more active; in vitro selection for triplet polymerase activity
How it was run: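 Fitness is a logarithmic measure of how a genotype enriched relative to the wild type, with replicate averages weighted by inverse variance. The logarithm uses base 2, and enrichment came from Illumina sequencing of input and output libraries. Those libraries were PCR-built, transcribed mutants of each subunit of a heterodimeric triplet polymerase ribozyme, passed through one triplicate in vitro selection round that included frozen incubation at −7 °C, gel excision of extended constructs and streptavidin-bead capture. Genotypes were kept only if they had ≥10 input reads and ≥1 read per output.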

Row | Variant | polymerase ribozyme fitness (log ratio)
1 | C20G C34U G63A C79U C99U A111C | -5.53
2 | C8G C13A A18U G51U C56A U116C | -5.95
3 | U7A C49U | 0.388
4 | C3U G39A G69U A105C G120U G128C | -3.77
5 | G63U A68C A121G | -5.43
6 | C72A G122A | -0.72
7 | A6G A50G U112C | 1.56
8 | C76U U129G | -0.833
9 | G10A C62U | 0.124
10 | A26C G57U | -6.49
11 | U129A U132C | -0.64
12 | A5C C12A A43G G60C | -4.18
13 | A46G A50U C88A C89A C124A U133A | -0.0922
14 | A46C A74U | -0.673
15 | C13A A16U C72U G93A | -3.35
16 | A46U C123A | -0.661
17 | A18U G127C | -3.45
18 | C8G A18C A37C C64G A90U U106A C123A U131A | -6.48
19 | G47U U106C | -1.89
20 | A50G G57C G61U C88G | -3.3
21 | G51C C80G | -1.85
22 | A27G G51U G61A G127C | -6.98
23 | G42A C53U C88A C114A G127U | -5.52
24 | C40U G113U U129C | -3.58

Row | Variant | polymerase ribozyme fitness (log ratio)
25 | A26U A46U | -4.63
26 | G69U G71A A84C | -4.28
27 | G19A U87A | -2.78
28 | C40G C56G G122A | -1.45
29 | C20U C62G | -3.42
30 | G51A G77C U116C A118C | -5.43
31 | C15U G45A C56A G77C C88G G117C C123U | -4.21
32 | G45C A75G U96A G113C | -2.91
33 | A18U A50C C70A G71A C123U | -6.84
34 | U9G C11A G63C | -0.534
35 | A6U C12U G23C G63U G120U | -7.69
36 | A16G C56A C72A C86G G110A U112A | -3.93
37 | G69C U92G | -4.02
38 | C8G C73U | 0.902
39 | C8A U109A | -4.14
40 | U9C A119U C123U | 2.07
41 | G36A G52C C70G | -5.49
42 | U96G U130G | -1.28
43 | G47U C79G A100G C114G | -6.83
44 | C53G U78C U81A C101A G120C A121C | -2.66
45 | A27U U54C G61U G107C U109C G110C | -7.69
46 | A5U C12U G61A | 0.0113
47 | C85G G120A | -1.01
48 | A91C G120U | -1.5

Row | Variant | polymerase ribozyme fitness (log ratio)
49 | G58A C99U | -2.8
50 | U92A U133A | -2.62
51 | G45U A50G C73U U133A | -1.75
52 | G10U U32C C56A C64A | -6.8
53 | G48A G77U G135U | -1.78
54 | G51C U130A | -3.62
55 | C15U G93U | -2.38
56 | G47A U87A | -0.715
57 | U59C G61C | -3.23
58 | A6G C98U U106A C124A | 1.28
59 | A18C A50C G58A C97U | -5.7
60 | A18U A41C C72G | -2.61
61 | C11G C64U C98G U106C | -6.08
62 | A5U U126A | -0.78
63 | G69U C99A G127C | -3.98
64 | C13G C82A A84G C123A | -0.276
65 | C53A C56U U78C A118U G120C | 0.115
66 | A5C G45U G93A A121U | -0.00844
67 | C34G G61A U87A G110C | -6.72
68 | C8A G10A C86U G120C | 1.44
69 | U21G C88A | -1.66
70 | G77U A103C | -4.83
71 | C85G G122A | -1.82
72 | C15U G19U C124G | -2.54

Row | Variant | polymerase ribozyme fitness (log ratio)
73 | U9A G51U G52U U116A | -3.29
74 | U9C A46U C53U A84C C88U | -1.01
75 | U30A U106A C124G | -2.11
76 | G60U C114A G127C | -2.37
77 | G10A A29C C124U | -0.613
78 | C12U A29G | -1.25
79 | C79U A91C A100U | -3.6
80 | C20G A46U G120A | -4.96
81 | G25C C123G | -5.25
82 | U96A C104U | -0.116
83 | C11U A26U U55C A75G A83C | -3.24
84 | A43C C53G C70U A95C | -5.1
85 | C94G C102U | -3.04
86 | U9C G36U G63A | -1.4
87 | C8G G39U | 0.57
88 | U7G C12A C15A C49A U112A | -0.0165
89 | C12U C104G | -4.58
90 | C8A C86G G113A | -1.25
91 | A95C U125A U126G | -1.74
92 | U59C C72U | -0.715
93 | C8A C20G G61A | -4.4
94 | C11G C13U U32C A68G | -3.2
95 | C11U C22G A26C C64U | -4.03
96 | G44C G47U U81A | -4.12

Row | Variant | polymerase ribozyme fitness (log ratio)
97 | G63A G117A | -2.26
98 | C70G C82A G113C | -6.03
99 | G10U A26C A74G A90U G120A | -5.63
100 | G57A A84U | -0.813
101 | G39A C70U A118G G122A | -0.719
102 | C3U U7G A29G C101U U106C | -4.76
103 | G63A C64A U81G C115G | -6.59
104 | G45U G58A C86U A95C | -3.29
105 | A2G G120C | 1.19
106 | A2U C89A C115A | -3.43
107 | A46U A74U U87G G93A C98U | -2.38
108 | A37U C73U G120C | 1.31
109 | C8G G60A | 0.62
110 | A5G C82G | -0.685
111 | A2C C8G G48U G71A C101U | -2.14
112 | A26U A46C G63A G120U | -5
113 | C11U G42U C101A | -3.62
114 | C31U C73G | -4.48
115 | C11G C94U U96A | -0.725
116 | G71C A100U G120U | -1.67
117 | A74G A83C C114A C123G C124G | -0.429
118 | C70U U78C C86G | -0.947
119 | C15U G39C C94U C115U C123A G135U | -5.48
120 | G63U C82A U126A | -3.13

Row | Variant | polymerase ribozyme fitness (log ratio)
121 | G39U C88U G107U G113A G122A | -6.96
122 | A26U A46C C56A G120U | -4.53
123 | U38A G93U C123U | -3.41
124 | C3U G45A G61U A100U C124U | 0.286
125 | C3U C53G C89G | -1.41
126 | C8A A43U G71C | -2.95
127 | C56A A66U G71C G120U | -7.24
128 | C11G G25U | -4.49
129 | G42U G71C A111C U130C | -3.75
130 | C13G G36A A95C | -4.52
131 | A27U G120U | -2.65
132 | U14A C85U | -2.79
133 | G93C U132C | -1.62
134 | A29U U78A | -1.8
135 | C12A C85A | -2.59
136 | G44U G47U | -2.16
137 | C53G U125C | -2.29
138 | C56U C72A C88U | -1.31
139 | A18C A37G C62G | -6.59
140 | C4U C56G A111U | -2.42
141 | C8U C49G U106A G110A | -1.48
142 | C80U A118C | -3.16
143 | U7A A26U C49U C94G C123G | -4.09
144 | G52U G61C | 0.0885

Row | Variant | polymerase ribozyme fitness (log ratio)
145 | A43G C53A U109A A119G | -5.89
146 | C11U U59G G93C U129C | -1.93
147 | C73U G113U | -3.18
148 | C49A U55G U125A G127A | -1.79
149 | G52A C104U | 0.136
150 | C15A G69U | -1.16
151 | G10U C20U A43C A50C C79G C88U A121G | -4.86
152 | C12A A16U A50U A74U | -5.14
153 | C12A U106A | -0.467
154 | G39C C62U G63A | -3.77
155 | A66U C88U | -0.564
156 | G71A A84U | -1.02
157 | U9G C80A | -2.27
158 | A6U C11U C22U A41C | -5.83
159 | C8A C56A | 0.505
160 | C11G G39A | 0.759
161 | C49G U55G C89A U92C | -5.1
162 | C62A C115A | -1.58
163 | C85U U109A A121G | -4.29
164 | U55A C85G C86G U112G G128A | -2.76
165 | U67A C73U C94A C104U G117U | -6.08
166 | G45U C53A G69A C89A C104U C124A G135A | -6.34
167 | C8A G135U | -0.432
